Patent publication US20240166594A1, “PHOTOCAGED CITRULLINE ANALOGS AND METHODS FOR SITE-SPECIFIC INCORPORATION OF CITRULLINE INTO PROTEINS” (University of Massachusetts, priority 2021, published 2024)
Values joined by “and” are separate entries in the source; they are usually repeats but may differ in a detail not shown here. Equal entries are not always repeated. Where a SMILES comes first, the peptide text is derived from it.

Key:
R374Cit PAD4 = assay: Thermal shift assay with GSK199, R374Cit PAD4; assay type: binding; conditions: GSK199 10 μM
Method: (§1) A 50 μL reaction mixture (EXPI293F lysate containing overexpressed wild-type PAD4 (1.5 mg/mL) or R374Cit mutant (2 mg/mL), 1×PBS and DMSO (1% final)) was heated at various temperatures (25, 40, 50, 60, 65, 70, 75, 85 and 90° C.) for 5 min followed by flash freezing with liquid nitrogen. The samples were thawed and the precipitated proteins were separated by centrifugation (15000 rpm, 30 min) at 4° C. 40 μL of the supernatant was mixed with 10 μL of 5×SDS-PAGE loading dye and the mixture was boiled at 95° C. for 10 min. The proteins were separated by SDS-PAGE using a 4-20% gradient gel and the soluble fractions of PAD4 were quantitated by western blot analysis using a rabbit polyclonal anti-PAD4 antibody. This assay was also performed separately in the presence of CaCl2 (1 mM final) and a PAD4-selective ligand, GSK199 (10 μM final). For these assays, the reaction mixture was incubated with CaCl2 or GSK199 at room temperature for 5 min before heating up at different temperatures. All the reactions were performed at least in duplicate.

WT PAD4 = target: T1, WT PAD4 (Homo sapiens, UniProt Q9UM07); assay: Thermal shift assay with GSK199, wild-type PAD4; assay type: binding; conditions: GSK199 10 μM, EXPI293F lysate
T1 construct: FLAG (N); His tag (C); expressed in transfected cells; host or cells: EXPI293F
T1 sequence (Q9UM07 whole entry G112A): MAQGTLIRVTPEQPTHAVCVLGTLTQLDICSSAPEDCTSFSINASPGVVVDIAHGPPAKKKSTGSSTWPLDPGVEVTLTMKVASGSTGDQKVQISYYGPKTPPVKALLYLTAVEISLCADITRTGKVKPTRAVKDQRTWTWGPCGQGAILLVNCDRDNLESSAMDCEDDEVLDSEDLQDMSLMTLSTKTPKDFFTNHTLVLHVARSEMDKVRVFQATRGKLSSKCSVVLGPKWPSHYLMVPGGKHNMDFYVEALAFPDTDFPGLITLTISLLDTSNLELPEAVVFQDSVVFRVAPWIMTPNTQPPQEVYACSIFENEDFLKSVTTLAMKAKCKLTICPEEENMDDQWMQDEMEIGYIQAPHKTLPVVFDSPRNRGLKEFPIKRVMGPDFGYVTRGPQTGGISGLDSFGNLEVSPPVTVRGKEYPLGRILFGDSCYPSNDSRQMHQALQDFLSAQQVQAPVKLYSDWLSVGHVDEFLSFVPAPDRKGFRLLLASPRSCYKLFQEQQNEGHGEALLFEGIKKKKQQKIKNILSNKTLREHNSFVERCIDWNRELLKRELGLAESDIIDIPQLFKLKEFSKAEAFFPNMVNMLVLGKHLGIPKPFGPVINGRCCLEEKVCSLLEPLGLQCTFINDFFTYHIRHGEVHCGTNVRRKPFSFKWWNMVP
Method: as §1

HEK293T cells = assay: Cytotoxicity of PAD4 expression in HEK293T cells (CellTiter-Blue); assay type: cell-based
Method: HEK293T cells were seeded (2×10^4 cells/well) on 96-well plate and were allowed to grow in DMEM (supplemented with 10% heat-inactivated fetal bovine serum, 100 units/mL penicillin, 100 μg/mL streptomycin) for 48 h. Cells were then transfected with appropriate plasmids (120 ng PAD4 plasmid and 80 ng pIDTSMART eRF1 E55D for each well) using Lipofectamine 2000 (500 ng for each well) in Opti-MEM medium (Gibco). After 5 h, the medium was changed to DMEM and DMSO (for WT PAD4) or SM60 (0.25, […] and 1 mM for R374Cit PAD4) was added. Cells were then allowed to grow at 37° C. for 48 h. Cell viability was measured before and after photodecaging (by UV treatment for 3 min) using CellTiter-Blue® (Promega) by following the manufacturer's protocol. Untransfected cells served as the control. All the experiments were performed in triplicate.

[1] = Solubility of decaged peptide observed during SM70 decaging; assay type: physicochemical; conditions: decaged peptide from SM70; turbid even in 1:1 acetonitrile/PBS
Method: FIG. 10. (A) Decaging of SM70, a PAD4-derived peptide (residues 363-372 with SM60 at the 372 position. Prolines at 365 and 371 positions were replaced with W and A, respectively, and a lysine residue was added to the C-terminus for ease of synthesis.). (B) HPLC chromatogram of SM70 before and after 5 min of 365 nm irradiation. […] Even after performing the reaction in 1:1 acetonitrile/PBS, the solution became turbid upon the formation of the decaged peptide. Assay condition: 200 μM SM70, 2 mM DTT, 1:1 acetonitrile/PBS (pH 7.4). (C) ESI mass spectrum of the citrulline-containing peptide (decaged product).

[2] = Michaelis-Menten kinetics of wild-type and mutant PAD4 (COLDER assay); assay type: biochemical; conditions: substrate BAEE, 10 mM CaCl2, pH 7.4, 37° C.
Method: PAD4 (50 nM final for wild-type, 75 nM final for R372Cit, and 100 nM final for R374Cit) was added to a pre-warmed (10 min, 37° C.) reaction mixture (60 μL final) containing various concentrations of BAEE (0, 0.5, 1, 2.5, 5 and 10 mM), CaCl2 (10 mM), TRIS-HCl (100 mM, pH 7.4), NaCl (50 mM) and DTT (2 mM). This mixture was incubated at 37° C. for 45 min (for wild-type), 90 min (for R374Cit) and 120 min (for R372Cit) followed by quenching with liquid nitrogen. The rate of citrulline formation at various BAEE concentrations was quantified with the COLDER assay. The rates were plotted against the BAEE concentration and were fit to the Michaelis-Menten equation using Graphpad Prism. All the reactions were performed at least in duplicate.

[3] = Calcium-dependence of wild-type PAD4 (COLDER assay); assay type: biochemical; conditions: 10 mM BAEE, pH 7.4, 37° C.
Method: PAD4Bac (purified from bacterial expression system) and PAD4Mam (purified from mammalian expression system) (6 μL of 0.5 μM stock, 50 nM final) were added to separate pre-warmed (10 min, 37° C.) reaction mixtures (60 μL final) containing BAEE (10 mM), various concentrations of CaCl2 (0, 0.25, 0.5, 1, 2.5, 5 and 10 mM), TRIS-HCl (100 mM, pH 7.4), NaCl (50 mM) and DTT (2 mM). This mixture was incubated at 37° C. for 45 min followed by flash freezing with liquid nitrogen. The production of citrulline at various concentration of CaCl2 by PAD4 was quantified with the COLDER assay. (Tanikawa, et al. 2012 Nat. Commun. 3, 676; Zhang, et al. 2012 Proc. Natl. Acad. Sci. USA 109, 13331-13336.)
The calcium-dependence of citrulline production by PAD4 was fit to the equation 2,
v=Vmax*[Ca^2+]^h/(K0.5^h+[Ca^2+]^h) (2)
using Graphpad Prism, where v is the velocity of the reaction, Vmax is the maximum velocity of the reaction, [Ca^2+] is the concentration of calcium, h is the hill slope and K0.5 is the calcium concentration that gives half-maximal velocity. All the reactions were performed at least in duplicate.

histone H3 = assay: Histone H3 citrullination in live HEK293T cells (western blot); assay type: cell-based; conditions: calcium and ionomycin, 3 h
Method: HEK293T cells were seeded (4×10^5 cells/well) on 6-well plates and were allowed to grow in DMEM (supplemented with 10% heat-inactivated fetal bovine serum, 100 units/mL penicillin, 100 μg/mL streptomycin) for 48 h. Cells were then transfected with appropriate plasmids (3 μg PAD4 plasmid and 2 μg pIDTSMART eRF1 E55D for each well) using Lipofectamine 2000 (12.5 μg for each well) in Opti-MEM medium (Gibco). After 5 h, the medium was changed to DMEM and DMSO (for WT PAD4) or SM60 (1 mM for R374Cit PAD4) was added. Cells were then allowed to grow at 37° C. for 48 h. Cells were washed with serum-free DMEM (supplemented with 100 units/mL penicillin, […] streptomycin), resuspended in the same medium and were irradiated with 365 nm UV for 3 min. Then the cells were treated with CaCl2 (1 mM) and a combination of CaCl2 (1 mM) and ionomycin (5 μM) for 3 h at 37° C. After this, cells were lysed and the lysates were analyzed by Western blotting using anti-histone H3 citrulline (R2,8,17) and anti-histone H3 primary antibodies. PAD4 expression was quantified by using an anti-PAD4 primary antibody. Band intensities for citrullinated histone H3 were normalized against those for histone H3 and PAD4 using the following algorithm,
Normalized histone H3Cit=[H3Cit/(H3_33 PAD4)]×10^6
All the experiments were performed in triplicate.

[4] = Thermal shift assay, melting temperature of PAD4 in EXPI293F lysate; assay type: physicochemical; conditions: no ligand
Method: as §1

Compound: CCn1c(-c2nc3cc(C(=O)N4CCCC(N)C4)cc(OC)c3n2C)cc2cccnc21 (stereo not shown) [GSK199]
- effect on Tm of R374Cit PAD4 (R374Cit PAD4; EXPI293F lysate): did not increase the Tm of the R374Cit mutant
- binding to R374Cit mutant (R374Cit PAD4; inferred from thermal shift): binds poorly to the R374Cit mutant
- effect on Tm of WT PAD4 (WT PAD4): increased the Tm of WT PAD4

Compound: PAD4: Protein Arginine Deiminase 4 (WT and R374Cit) overexpressed in HEK293T cells
- cytotoxicity of expression (HEK293T cells): does not cause any cytotoxicity

Compound: CC(C)C[C@H](NC(=O)[C@@H](N)[C@@H](C)O)C(=O)N[C@@H](Cc1c[nH]c2ccccc12)C(=O)N[C@H](C(=O)N[C@H](C(=O)N[C@@H](Cc1ccccc1)C(=O)N[C@@H](CC(=O)O)C(=O)N[C@@H](CO)C(=O)N[C@@H](C)C(=O)N[C@@H](CCCNC(N)=O)C(=O)N[C@@H](CCCCN)C(=O)O)C(C)C)C(C)C [decaged product] (HELM PEPTIDE1{T.L.W.V.V.F.D.S.A.[Cit].K}$$$$V2.0)
- solubility in aqueous buffer [1]: extremely low solubility in aqueous buffer

Compound: PAD4Mam: wild-type PAD4 purified from mammalian expression system (HEK293T), N-terminal FLAG and C-terminal His tag
- Km [2]: 1100 ± 200 µM
- kcat [2]: 3.7 ± 0.1 S^−1
- K0.5 (Ca^2+ concentration for half-maximal activity) [3]: 0.9 mM and 0.9 ± 0.05 mM

Compound: WT PAD4: wild-type Protein Arginine Deiminase 4
- times more active than the R374Cit mutant for the citrullination of histone H3 (histone H3): 6 times
- melting temperature (Tm) [4]: 62.9 °C

Compound: PAD4Bac: wild-type PAD4 purified from bacterial (E. coli) expression system
- Km [2]: 700 ± 100 µM
- kcat [2]: 3.4 ± 0.2 S^−1
- K0.5 (Ca^2+ concentration for half-maximal activity) [3]: 0.9 mM and 0.9 ± 0.10 mM
